Results from paper PMC9482650, “Quantitative fragmentomics allow affinity mapping of interactomes” (Nature Communications, 2022).

T1: RAPGEF6, Q8TEU7
T1 sequence (Q8TEU7 525-625, limits assumed, looked up): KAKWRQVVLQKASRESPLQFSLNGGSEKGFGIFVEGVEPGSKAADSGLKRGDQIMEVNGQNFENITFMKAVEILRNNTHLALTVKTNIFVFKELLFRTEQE

T2: GRIP1_2, Q9Y3R0
T2 sequence (Q9Y3R0 145-248, limits assumed, looked up): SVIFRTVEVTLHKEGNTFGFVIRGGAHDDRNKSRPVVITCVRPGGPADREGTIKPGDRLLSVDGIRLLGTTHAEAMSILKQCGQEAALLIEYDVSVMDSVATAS

T3: RHPN1, Q8TCX5
T3 sequence (Q8TCX5 508-602, limits assumed, looked up): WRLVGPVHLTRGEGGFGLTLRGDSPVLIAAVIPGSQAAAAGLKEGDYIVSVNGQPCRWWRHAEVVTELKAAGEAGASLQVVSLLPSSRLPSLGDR

T4: MPDZ_12, O75970
T4 sequence (O75970 1857-1958, limits assumed, looked up): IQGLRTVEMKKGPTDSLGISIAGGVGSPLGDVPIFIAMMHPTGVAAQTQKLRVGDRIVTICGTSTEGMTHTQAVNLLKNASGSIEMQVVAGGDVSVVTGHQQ

T5: LNX2_3, Q8N448
T5 sequence (Q8N448 463-564, limits assumed, looked up): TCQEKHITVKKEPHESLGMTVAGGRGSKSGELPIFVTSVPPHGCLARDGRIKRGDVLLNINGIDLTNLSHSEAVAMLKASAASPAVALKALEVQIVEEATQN

T6: TIAM2, Q8IVF5
T6 sequence (Q8IVF5 885-986, limits assumed, looked up): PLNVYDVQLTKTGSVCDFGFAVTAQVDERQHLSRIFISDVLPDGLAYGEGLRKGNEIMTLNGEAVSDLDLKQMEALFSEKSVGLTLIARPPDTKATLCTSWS

T7: PTPN13_1, Q12923
T7 sequence (Q12923 1088-1188, limits assumed, looked up): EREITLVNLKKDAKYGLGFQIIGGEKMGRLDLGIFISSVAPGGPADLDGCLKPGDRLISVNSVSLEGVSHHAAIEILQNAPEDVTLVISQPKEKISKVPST

T8: MPDZ_5, O75970
T8 sequence (O75970 695-796, limits assumed, looked up): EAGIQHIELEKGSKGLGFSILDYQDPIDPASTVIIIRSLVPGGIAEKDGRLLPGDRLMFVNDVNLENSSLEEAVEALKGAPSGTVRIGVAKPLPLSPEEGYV

T9: PDZD2_2, O15018
T9 sequence (O15018 329-429, limits assumed, looked up): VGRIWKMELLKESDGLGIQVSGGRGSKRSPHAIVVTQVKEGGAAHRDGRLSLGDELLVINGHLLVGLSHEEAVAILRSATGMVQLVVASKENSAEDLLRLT

T10: APBA1_1, Q02410
T10 sequence (Q02410 651-752, limits assumed, looked up): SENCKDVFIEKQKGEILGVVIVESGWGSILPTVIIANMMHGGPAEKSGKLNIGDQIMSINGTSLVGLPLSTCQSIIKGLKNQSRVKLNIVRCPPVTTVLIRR


Key:
Assay in all cases: holdup assay
Design in all cases: key: below the threshold = too weak to quantify, mostly under pKd 3.1 to 4
Settings in all cases: plain residues with an end cap or a label only (N-terminal biotin on a linker: ado-ado)
RAPGEF6, Q8TEU7 = biological target: T1, RAPGEF6, Q8TEU7
GRIP2_7, Q9C0E4 = biological target: GRIP2_7, Q9C0E4
GRIP2_7, Q9C0E4, sequence (Q9C0E4 934-1023): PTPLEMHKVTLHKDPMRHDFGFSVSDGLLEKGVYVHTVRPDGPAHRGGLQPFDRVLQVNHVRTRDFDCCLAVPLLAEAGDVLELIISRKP

GRIP1_2, Q9Y3R0 = biological target: T2, GRIP1_2, Q9Y3R0
RHPN1, Q8TCX5 = biological target: T3, RHPN1, Q8TCX5
DLG1_1, Q12959 = biological target: DLG1_1, Q12959
MPDZ_12, O75970 = biological target: T4, MPDZ_12, O75970
LNX2_3, Q8N448 = biological target: T5, LNX2_3, Q8N448
GRIP2_3, Q9C0E4 = biological target: GRIP2_3, Q9C0E4
GRIP2_3, Q9C0E4, sequence (Q9C0E4 238-339): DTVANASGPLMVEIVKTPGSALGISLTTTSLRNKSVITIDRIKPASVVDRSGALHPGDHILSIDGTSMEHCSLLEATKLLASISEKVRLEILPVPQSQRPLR

SNX27, Q96L92 = biological target: SNX27, Q96L92
LNX1_2, Q8TBB1 = biological target: LNX1_2, Q8TBB1
LNX1_2, Q8TBB1, sequence (Q8TBB1 371-470): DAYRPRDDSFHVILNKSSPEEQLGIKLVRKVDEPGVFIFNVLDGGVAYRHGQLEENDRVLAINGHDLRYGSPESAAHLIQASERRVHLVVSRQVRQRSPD

PARD3_3, Q8TEW0 = biological target: PARD3_3, Q8TEW0
PARD3_3, Q8TEW0, sequence (Q8TEW0 582-685): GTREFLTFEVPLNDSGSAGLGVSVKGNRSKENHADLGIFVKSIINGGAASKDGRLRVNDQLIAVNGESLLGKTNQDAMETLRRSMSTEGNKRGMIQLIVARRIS

MAGI2_2, Q86UL8 = biological target: MAGI2_2, Q86UL8
MAGI2_2, Q86UL8, sequence (Q86UL8 410-522): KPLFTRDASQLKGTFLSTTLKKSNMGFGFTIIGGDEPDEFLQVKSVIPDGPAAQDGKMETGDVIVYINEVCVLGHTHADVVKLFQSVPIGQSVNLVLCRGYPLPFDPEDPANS

MAST2, Q6P0Q8 = biological target: MAST2, Q6P0Q8
MAST2, Q6P0Q8, sequence (Q6P0Q8 1099-1202): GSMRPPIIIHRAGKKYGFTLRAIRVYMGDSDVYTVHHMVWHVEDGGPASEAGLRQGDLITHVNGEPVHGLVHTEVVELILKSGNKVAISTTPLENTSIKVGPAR

FRMPD2_1, Q68DX3 = biological target: FRMPD2_1, Q68DX3
FRMPD2_1, Q68DX3, sequence (Q68DX3 770-861): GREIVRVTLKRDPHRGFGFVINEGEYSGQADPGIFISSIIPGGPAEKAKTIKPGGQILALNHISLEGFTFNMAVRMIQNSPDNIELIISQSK

DLG2_3, Q15700 = biological target: DLG2_3, Q15700
TIAM2, Q8IVF5 = biological target: T6, TIAM2, Q8IVF5
HTRA2, O43464 = biological target: HTRA2, O43464
HTRA2, O43464, sequence (O43464 355-458): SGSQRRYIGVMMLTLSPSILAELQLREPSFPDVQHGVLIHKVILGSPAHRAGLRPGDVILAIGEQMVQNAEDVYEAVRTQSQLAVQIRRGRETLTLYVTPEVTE

PTPN13_1, Q12923 = biological target: T7, PTPN13_1, Q12923
NHERF4_1, Q86UT5-2 = biological target: NHERF4_1, Q86UT5-2
NHERF4_1, Q86UT5-2, sequence (Q86UT5 other isoform, or with tags, fused parts or gaps): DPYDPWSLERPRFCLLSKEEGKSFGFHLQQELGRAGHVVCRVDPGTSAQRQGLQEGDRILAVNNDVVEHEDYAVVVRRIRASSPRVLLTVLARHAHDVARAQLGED

LAP2, Q96RT1 = biological target: LAP2, Q96RT1
LAP2, Q96RT1, sequence (Q96RT1 other isoform, or with tags, fused parts or gaps): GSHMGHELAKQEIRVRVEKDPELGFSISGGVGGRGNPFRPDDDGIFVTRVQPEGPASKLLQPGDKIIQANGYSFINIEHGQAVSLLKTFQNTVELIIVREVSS

NOS1, P29475 = biological target: NOS1, P29475
NOS1, P29475, sequence (P29475 9-101): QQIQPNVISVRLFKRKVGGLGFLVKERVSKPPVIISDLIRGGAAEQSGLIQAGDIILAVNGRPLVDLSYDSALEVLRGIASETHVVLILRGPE

MPDZ_5, O75970 = biological target: T8, MPDZ_5, O75970
DLG4_1, P78352 = biological target: DLG4_1, P78352
DLG4_1, P78352, sequence (P78352 62-152): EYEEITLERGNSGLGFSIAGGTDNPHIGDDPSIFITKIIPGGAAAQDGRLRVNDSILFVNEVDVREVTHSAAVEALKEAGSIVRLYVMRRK

FRMPD3, Q5JV73 = biological target: FRMPD3, Q5JV73
FRMPD3, Q5JV73, sequence (Q5JV73 12-100): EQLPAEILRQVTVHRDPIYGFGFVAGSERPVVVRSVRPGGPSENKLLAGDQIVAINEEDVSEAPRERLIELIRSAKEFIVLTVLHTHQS

PDZD2_2, O15018 = biological target: T9, PDZD2_2, O15018
Inadl_1, Q8NI35 = biological target: Inadl_1, Q8NI35
Inadl_1, Q8NI35, sequence (Q8NI35 113-229): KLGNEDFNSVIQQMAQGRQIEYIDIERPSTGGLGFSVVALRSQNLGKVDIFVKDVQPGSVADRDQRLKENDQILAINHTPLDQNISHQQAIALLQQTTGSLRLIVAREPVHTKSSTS

APBA1_1, Q02410 = biological target: T10, APBA1_1, Q02410
DLG4_3, P78352 = biological target: DLG4_3, P78352
DLG4_3, P78352, sequence (P78352 306-403): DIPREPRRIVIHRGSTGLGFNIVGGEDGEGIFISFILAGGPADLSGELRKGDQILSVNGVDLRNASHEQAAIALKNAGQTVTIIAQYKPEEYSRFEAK

Row | Binder | pKd (RAPGEF6, Q8TEU7) | pKd (GRIP2_7, Q9C0E4) | pKd (GRIP1_2, Q9Y3R0) | pKd (RHPN1, Q8TCX5) | pKd (DLG1_1, Q12959) | pKd (MPDZ_12, O75970) | pKd (LNX2_3, Q8N448) | pKd (GRIP2_3, Q9C0E4) | pKd (SNX27, Q96L92) | pKd (LNX1_2, Q8TBB1) | pKd (PARD3_3, Q8TEW0) | pKd (MAGI2_2, Q86UL8) | pKd (MAST2, Q6P0Q8) | pKd (FRMPD2_1, Q68DX3) | pKd (DLG2_3, Q15700) | pKd (TIAM2, Q8IVF5) | pKd (HTRA2, O43464) | pKd (PTPN13_1, Q12923) | pKd (NHERF4_1, Q86UT5-2) | pKd (LAP2, Q96RT1) | further results
1 | ADEMICITTL [CACNA1D, Q01668] | 3.65 | 3.62 | below the threshold | 5.05 | 3.91 | 4.02 | below the threshold | below the threshold | 5.51 | below the threshold | 4.38 | below the threshold | 5.76 | below the threshold | 3.81 | 4.19 | 3.83 | below the threshold | 4.52 | 3.66 | pKd (NOS1, P29475): 3.58; pKd (MPDZ_5, O75970): below the threshold; pKd (DLG4_1, P78352): below the threshold; pKd (FRMPD3, Q5JV73): below the threshold; pKd (PDZD2_2, O15018): 3.95; pKd (Inadl_1, Q8NI35): 4.33; pKd (APBA1_1, Q02410): below the threshold; pKd (DLG4_3, P78352): below the threshold
2 | RSPVATATSC [DUSP5, Q16690] | below the threshold | below the threshold | below the threshold | below the threshold | below the threshold | below the threshold | below the threshold | below the threshold | below the threshold | below the threshold | below the threshold | below the threshold | 4.22 | below the threshold | 3.7 | 4.09 | below the threshold | below the threshold | 3.59 | below the threshold | pKd (NOS1, P29475): below the threshold; pKd (MPDZ_5, O75970): below the threshold; pKd (DLG4_1, P78352): below the threshold; pKd (FRMPD3, Q5JV73): below the threshold; pKd (PDZD2_2, O15018): below the threshold; pKd (Inadl_1, Q8NI35): below the threshold; pKd (APBA1_1, Q02410): below the threshold; pKd (DLG4_3, P78352): below the threshold
3 | NISARRFTLC [FAM167B, Q9BTA0] | below the threshold | 3.81 | below the threshold | below the threshold | 4.31 | 3.52 | below the threshold | below the threshold | below the threshold | 4.62 | below the threshold | 4.76 | 4.89 | 4.1 | 4.43 | below the threshold | 4.44 | below the threshold | 4.27 | below the threshold | pKd (NOS1, P29475): 3.81; pKd (MPDZ_5, O75970): below the threshold; pKd (DLG4_1, P78352): 4.35; pKd (FRMPD3, Q5JV73): below the threshold; pKd (PDZD2_2, O15018): below the threshold; pKd (Inadl_1, Q8NI35): below the threshold; pKd (APBA1_1, Q02410): below the threshold; pKd (DLG4_3, P78352): 4.38

Further lines, with some results ahead:

Row | pKd (RAPGEF6, Q8TEU7) | pKd (GRIP2_7, Q9C0E4) | pKd (GRIP1_2, Q9Y3R0) | pKd (RHPN1, Q8TCX5) | pKd (DLG1_1, Q12959) | pKd (MPDZ_12, O75970) | pKd (LNX2_3, Q8N448) | pKd (GRIP2_3, Q9C0E4) | pKd (SNX27, Q96L92) | pKd (LNX1_2, Q8TBB1) | pKd (PARD3_3, Q8TEW0) | pKd (MAGI2_2, Q86UL8) | pKd (MAST2, Q6P0Q8) | pKd (FRMPD2_1, Q68DX3) | pKd (DLG2_3, Q15700) | pKd (TIAM2, Q8IVF5) | pKd (HTRA2, O43464) | pKd (PTPN13_1, Q12923) | pKd (NHERF4_1, Q86UT5-2) | pKd (LAP2, Q96RT1) | Binder | further results
4 | below the threshold | below the threshold | below the threshold | below the threshold | below the threshold | below the threshold | below the threshold | below the threshold | below the threshold | below the threshold | 4.23 | below the threshold | 4.08 | below the threshold | below the threshold | below the threshold | below the threshold | below the threshold | 3.57 | below the threshold | LVEEEEPMNL [HDAC7, Q8WUI4] | pKd (NOS1, P29475): below the threshold; pKd (MPDZ_5, O75970): below the threshold; pKd (DLG4_1, P78352): below the threshold; pKd (FRMPD3, Q5JV73): below the threshold; pKd (PDZD2_2, O15018): below the threshold; pKd (Inadl_1, Q8NI35): below the threshold; pKd (APBA1_1, Q02410): below the threshold; pKd (DLG4_3, P78352): below the threshold
5 | 3.6 | 4.09 | 3.8 | 4.43 | 4.25 | 4.36 | below the threshold | below the threshold | 5.58 | 3.94 | 4.75 | below the threshold | 5.12 | below the threshold | 3.86 | 4.17 | 3.96 | below the threshold | below the threshold | 5.73 | PLPPEEESWV [GAS2L2, Q8NHY3] | pKd (NOS1, P29475): 4.06; pKd (MPDZ_5, O75970): 3.79; pKd (DLG4_1, P78352): 4.03; pKd (FRMPD3, Q5JV73): 3.72; pKd (PDZD2_2, O15018): 6.13; pKd (Inadl_1, Q8NI35): 3.55; pKd (APBA1_1, Q02410): below the threshold; pKd (DLG4_3, P78352): below the threshold
